T1: amino acid residues 26-148 of human ANGPTL4 fused in-line to mouse IgG2a (hANGPTL4-mFc) (human)
T1 chain: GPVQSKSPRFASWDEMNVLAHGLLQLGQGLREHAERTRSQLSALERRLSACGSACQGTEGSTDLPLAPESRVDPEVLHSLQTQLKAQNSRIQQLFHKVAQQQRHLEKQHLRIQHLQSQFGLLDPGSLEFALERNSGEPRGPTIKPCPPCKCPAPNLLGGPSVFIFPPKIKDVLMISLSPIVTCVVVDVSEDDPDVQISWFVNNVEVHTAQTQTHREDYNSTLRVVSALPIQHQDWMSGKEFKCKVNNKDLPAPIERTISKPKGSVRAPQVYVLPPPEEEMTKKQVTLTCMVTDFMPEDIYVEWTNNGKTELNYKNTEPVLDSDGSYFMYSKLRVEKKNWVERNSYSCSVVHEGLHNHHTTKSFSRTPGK

T2: full-length hANGPTL4 (amino acid residues 26-406 of SEQ ID NO:476) with a C-terminal hexa-histidine tag (human, UniProt Q9BY76 26-406)
T2 sequence: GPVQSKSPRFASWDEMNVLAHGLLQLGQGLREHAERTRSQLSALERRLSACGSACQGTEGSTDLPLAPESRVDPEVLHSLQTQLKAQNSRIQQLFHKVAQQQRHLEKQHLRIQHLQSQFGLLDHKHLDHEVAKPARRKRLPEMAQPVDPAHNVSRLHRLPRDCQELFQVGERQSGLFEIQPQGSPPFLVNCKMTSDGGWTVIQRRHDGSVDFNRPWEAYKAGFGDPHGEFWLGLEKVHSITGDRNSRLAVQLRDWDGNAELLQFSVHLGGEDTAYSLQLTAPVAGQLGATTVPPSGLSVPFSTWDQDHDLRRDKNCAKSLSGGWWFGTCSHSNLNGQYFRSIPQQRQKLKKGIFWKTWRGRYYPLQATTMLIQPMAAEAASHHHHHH

T3: cynomolgus monkey ANGPTL4 N-terminal region (amino acid residues 26-148) with an N-terminal hexa-histidine tag (cynomolgus monkey, UniProt Q9BY76 26-148 (human entry))
T3 chain: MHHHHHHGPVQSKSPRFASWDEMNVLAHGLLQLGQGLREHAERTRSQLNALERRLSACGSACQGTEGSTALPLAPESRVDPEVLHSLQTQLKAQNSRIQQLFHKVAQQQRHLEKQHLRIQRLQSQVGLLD

T4: cynomolgus monkey ANGPTL4 N-terminal region (amino acid residues 1-130 of SEQ ID NO:490) with a C-terminal … (cynomolgus monkey (Macaca fascicularis), UniProt Q9BY76 26-130 (human entry))
T4 construct: also called MfANGPTL4(1-130)-His
T4 chain: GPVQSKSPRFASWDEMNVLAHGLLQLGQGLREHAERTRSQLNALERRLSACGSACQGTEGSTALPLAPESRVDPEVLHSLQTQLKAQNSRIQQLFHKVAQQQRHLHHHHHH

B1: H1H268P (antibody, V domains shown)
VH: QVQLQESGAGLLKPSETLSLTCTVYGGSFSIHHWTWIRHPPGKGLEWIGEINHRGSTNYNPSLKSRVTISIDTSKNQFSLKLSAVTAADTAVYYCARGLRFLDWLSSYFDYWGQGTLVTVSS
VL: DIQMTQSPSSLSASVGDRVTITCRASQGISDYLAWYQQKPGKVPNLLIYAASALQSGVPSRFSGSGSGTDFTLTISSLQPEDVATYYCQNYNTAPLTFGGGTKVEIK
notes: also called entire H1H268 mAb; Full mAb
B2: H1H284P (antibody, V domains shown)
VH: QVQLVESGGGVVQPGRSLRLSCAASGFTFSSYGMHWVRQAPGKGLEWMAVISFDGGNKNNADSVKGRFTISRDNSKNTLYLQMNSLRAEDTAVYYCAKEGDRSGHPYFYYYGLDVWGQGTTVTVS
VL: DIQLTQSPSFLSASVGDRVTITCWASQGISSYLAWYQQKPGKAPKLLIYAASTLQSGVPSRFSGSGSETEFTLTISSLQPEDFATYYCQQLHSYPLTFGGGTKVEIK
notes: also called entire H1H284 mAb; Full mAb

Experiments:
[1] = target: T1, amino acid residues 26-148 of human …; assay: cell-based or functional assay
[2] = target: T2, full-length hANGPTL4 (amino acid …); assay: cell-based or functional assay
[3] = target: T1, amino acid residues 26-148 of human …; assay: cell-based or functional assay
[4] = target: T2, full-length hANGPTL4 (amino acid …); assay: cell-based or functional assay; remark: listed apart in the source
[5] = target: T3, cynomolgus monkey ANGPTL4 N-terminal …; assay: cell-based or functional assay
[6] = target: T1, amino acid residues 26-148 of human …; assay: cell-based or functional assay
[7] = target: T2, full-length hANGPTL4 (amino acid …); assay: cell-based or functional assay; remark: listed apart in the source
[8] = target: T1, amino acid residues 26-148 of human …; assay: SPR (Biacore), 25° C., pH 7.2, antigen captured by anti-mFc
Method: (§1) Kinetic analysis was performed to measure kₐ and kd, and KD values and half-life of antigen/antibody complex dissociation were calculated. The results are shown in Table 4 (H1H268P) and Table 5 (H1H284P).

[9] = target: T2, full-length hANGPTL4 (amino acid …); assay: SPR (Biacore), 25° C., pH 5.75, antigen amino-coupled 450 RU
Method: as §1

[10] = target: T4, cynomolgus monkey ANGPTL4 N-terminal …; assay: SPR (Biacore), 25° C., pH 7.2, antigen amino-coupled 1,028 RU
Method: as §1

[11] = target: T4, cynomolgus monkey ANGPTL4 N-terminal …; assay: SPR (Biacore), 25° C., pH 5.75, antigen amino-coupled 1,028 RU
Method: as §1

[12] = target: T1, amino acid residues 26-148 of human …; assay: SPR (Biacore T100), hANGPTL4-mFc captured by anti-mouse IgG, antibody injected, 25° C.
Method: Antigen-antibody binding and dissociation were monitored in real time at 25° C. and 37° C. Kinetic analysis was performed to calculate KD and half-life of antigen/antibody complex dissociation.

Row | Binder | IC50, antibody concentration required for 50% maximum inhibition of 2 nM hANGPTL4-mFc (LPL lipase test) [1] [nM] | IC50, antibody concentration required for 50% maximum inhibition of 10 nM hANGPTL4-His (LPL lipase test) [2] [nM] | IC50 (nM) in the LPL bioassay, constant ANGPTL4 2 nM [3] [nM] | IC50 (nM) in the LPL bioassay, constant ANGPTL4 10 nM [4] [nM] | IC50 (nM) in the LPL bioassay, constant ANGPTL4 10 nM [5] [nM] | IC50 (nM) in the LPL inhibition assay, constant ANGPTL4 2 nM [6] [nM] | IC50 (nM) in the LPL inhibition assay, constant ANGPTL4 10 nM [7] [nM] | Kd [8] [nM] | koff [8] [s⁻¹] | kon [8] [M⁻¹ s⁻¹] | t1/2 [8] [min] | Kd [9] [nM] | koff [9] [s⁻¹] | kon [9] [M⁻¹ s⁻¹] | t1/2 [9] [min] | Kd [10] [nM] | koff [10] [s⁻¹] | kon [10] [M⁻¹ s⁻¹] | t1/2 [10] [min] | t1/2 [11] [min] | other results
1 | B1 | 1.2 | 0.2 | 0.47 | 0.46 | 0.42 | 0.67 | 0.2 | 0.629 | 9.59e-05 | 153000 | 120 | 0.483 | 0.000446 | 923000 | 26 | 0.122 | 4.76e-05 | 392000 | 243 | 140 | Kd [12]: 0.275 nM; t1/2 [12]: 80 min
2 | B2 | 0.8 | 0.5 | 0.51 | 0.31 | 0.42 | 0.33 | 0.42 | 0.196 | 5.36e-05 | 274000 | 216 | 0.141 | 0.000272 | 1.93e+06 | 42 | 0.125 | 5.83e-05 | 467000 | 198 | 137 | koff [11]: 8.42e-05 s⁻¹; kon [11]: 1.55e+06 M⁻¹ s⁻¹; Kd [12]: 0.168 nM; t1/2 [12]: 162 min
